Results: US12209135B2, “Anti-CD45 antibodies and conjugates thereof” (priority 2019, dated 2025)

How the values were obtained:
human CD45 ectodomain = target: T1, human CD45 ectodomain (Homo sapiens, UniProt P08575); test: Biolayer interferometry (BLI, Octet) binding of immobilized IgG to purified CD45 ectodomain; details: Table 2, Human CD45
T1 construct: purified human, rhesus or cynomolgus CD45 ectodomain
T1 sequence (P08575 26-577): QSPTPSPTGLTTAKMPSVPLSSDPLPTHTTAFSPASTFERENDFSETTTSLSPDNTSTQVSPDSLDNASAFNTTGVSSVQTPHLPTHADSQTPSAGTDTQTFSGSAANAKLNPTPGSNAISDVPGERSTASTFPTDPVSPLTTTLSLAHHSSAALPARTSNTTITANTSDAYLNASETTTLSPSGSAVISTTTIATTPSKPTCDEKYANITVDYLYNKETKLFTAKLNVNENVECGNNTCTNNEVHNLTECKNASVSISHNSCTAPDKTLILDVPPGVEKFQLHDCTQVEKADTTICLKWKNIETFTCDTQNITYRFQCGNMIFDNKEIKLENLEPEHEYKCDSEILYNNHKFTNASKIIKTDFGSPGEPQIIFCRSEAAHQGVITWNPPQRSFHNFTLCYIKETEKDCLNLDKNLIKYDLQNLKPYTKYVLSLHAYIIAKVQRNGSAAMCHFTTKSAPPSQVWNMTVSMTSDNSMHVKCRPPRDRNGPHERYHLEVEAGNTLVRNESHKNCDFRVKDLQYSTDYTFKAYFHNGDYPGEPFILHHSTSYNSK
Experimental: (§1) Antibody binding studies were performed at 25° C. in 1×PBS supplemented with 0.1% w/v bovine serum albumin with a Pall ForteBio Octet Red96 using biolayer interferometry (BLI).
(§2) The apparent monovalent affinity (KD), apparent association rate (KON), and apparent dissociation rate (KOFF) were determined by local full fitting with a 1:1 binding model as calculated by ForteBio data analysis software version 10 of each IgG to purified human, cynomolgus or rhesus CD45 ectodomain. […] Binding was confirmed using
Briefly, antibody binding studies were performed at 25° C. in 1×PBS supplemented with 0.1% w/v bovine serum albumin with a PALL FORTEBIO OCTET RED96 using biolayer interferometry (BLI). Each purified antibody was immobilized onto anti-human Fc biosensors (AHQ; PALL FORTEBIO 18-5001) and incubated with 100 nM of purified human or 300 nM of cynomolgus CD45 ectodomain.
(§3) The apparent monovalent affinity (KD), apparent association rate (KON), and apparent dissociation rate (KDIS or KOFF) were determined by local full fitting with a 1:1 binding model as calculated by FORTEBIO data analysis software version 10. […] Each of the selected humanized antibodies AbA, AbB, and AbC was able to cross react with human and cynomolgus CD45.

[1] = test system: cynomolgus CD45 ectodomain; test: as above; details: Table 2, Cynomolgus CD45
Sequence of cynomolgus CD45 ectodomain (as listed by the source): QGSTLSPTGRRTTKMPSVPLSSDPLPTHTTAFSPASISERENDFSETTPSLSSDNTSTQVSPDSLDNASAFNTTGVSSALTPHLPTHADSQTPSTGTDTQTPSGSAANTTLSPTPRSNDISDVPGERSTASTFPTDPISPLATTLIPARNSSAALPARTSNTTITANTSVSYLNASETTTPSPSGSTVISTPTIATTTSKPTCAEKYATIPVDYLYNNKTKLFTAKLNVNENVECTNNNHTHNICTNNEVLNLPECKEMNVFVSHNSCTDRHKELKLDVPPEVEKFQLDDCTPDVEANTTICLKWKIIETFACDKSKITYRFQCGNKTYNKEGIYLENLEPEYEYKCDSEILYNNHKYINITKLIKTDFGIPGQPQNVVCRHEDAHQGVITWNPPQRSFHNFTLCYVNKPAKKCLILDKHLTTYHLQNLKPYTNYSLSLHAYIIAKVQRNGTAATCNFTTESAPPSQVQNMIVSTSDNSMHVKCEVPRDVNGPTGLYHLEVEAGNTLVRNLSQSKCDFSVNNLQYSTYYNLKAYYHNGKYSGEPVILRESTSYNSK
Experimental: as §1, §2
Briefly, antibody binding studies were performed at 25° C. in 1×PBS supplemented with 0.1% w/v bovine serum albumin with a PALL FORTEBIO OCTET RED96 using biolayer interferometry (BLI). […]
as §3

rhesus CD45 ectodomain = target: T2, rhesus CD45 ectodomain (Macaca mulatta, UniProt A0A1D5R142); test: as above; details: Table 2, Rhesus CD45
T2 construct: purified human, rhesus or cynomolgus CD45 ectodomain
T2 sequence (A0A1D5R142 26-581): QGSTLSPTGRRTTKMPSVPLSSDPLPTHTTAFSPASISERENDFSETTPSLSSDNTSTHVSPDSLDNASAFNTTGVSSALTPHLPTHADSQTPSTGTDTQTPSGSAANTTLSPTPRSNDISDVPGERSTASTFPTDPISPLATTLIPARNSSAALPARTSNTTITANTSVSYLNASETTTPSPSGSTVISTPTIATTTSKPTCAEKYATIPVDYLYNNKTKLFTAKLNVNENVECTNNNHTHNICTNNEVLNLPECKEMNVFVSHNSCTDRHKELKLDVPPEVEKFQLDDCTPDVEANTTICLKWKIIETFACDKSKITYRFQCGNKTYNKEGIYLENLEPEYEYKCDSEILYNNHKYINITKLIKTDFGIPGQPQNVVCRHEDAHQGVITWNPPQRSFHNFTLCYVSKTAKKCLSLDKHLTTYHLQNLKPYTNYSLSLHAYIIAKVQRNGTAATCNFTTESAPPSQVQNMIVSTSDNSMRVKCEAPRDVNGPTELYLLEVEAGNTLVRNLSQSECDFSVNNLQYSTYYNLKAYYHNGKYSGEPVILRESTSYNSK
Experimental: as §1
as §2, with “using […]” for “using”

[2] = Two-week thermal / pH stress stability by HIC and peptide mapping; format: physicochemical; details: 4° C., 25° C., 40° C. for 15 days; high pH treatment
Experimental: A two-week stability assay was performed by incubating Ab3 and Ab4 at 4° C., 25° C., and 40° C. for 15 days, after which the antibodies were analyzed by […] (HIC). Briefly, 25 micrograms of the indicated antibody were injected onto a Tosoh TSKgel Phenyl-5PW 7.5 mm ID×7.5 cm 10-micron column (Catalog #07573) on a Waters ARC HPLC/UPLC system. […] This hydrophilic pre-peak was indicative of a potential site of post-translational modification (e.g., oxidation or deamidation). Peptide mapping was subsequently performed to identify which amino acids were modified in each antibody upon exposure to stress (high pH, low pH, and oxidative stress). The peptide mapping analysis identified a potential site of deamidation at an asparagine in CDR-L1 (N30 position) in response to high pH conditions (e.g., pH 8 or greater).
Accordingly, variants of Ab3 and Ab4 were generated in which the asparagine in CDR-L1 (e.g., at position 30B) was substituted with a serine. The resulting antibodies were named Ab7 and Ab5 respectively.

B1: Ab4: affinity matured human anti-CD45 IgG derived from Ab1; VH SEQ ID NO:31, VL SEQ ID NO:35 (antibody, V domains shown)
VH: EVQLVESGGGLVQPGGSLRLSCAASGFTFEAYSMNWVRQAPGKGLEWVSYISLSGATIHYADSVKGRFTISRDNAKNSLYLQMNSLRAEDTAVYYCARGGQYYYTSSDYGEVAFDIWGQGTMVTVSS
VL: DIVMTQSPLSLPVTPGEPASISCRSSQSLVSNGYNYLDWYLQKPGQSPQLLIYFGSSRASGVPDRFSGSGSGTDFTLKISRVEAEDVGVYYCMQRRRTPWSFGGGTKVEIK
Kdis (human CD45 ectodomain): 3.28e-06 s⁻¹
Kon (human CD45 ectodomain): 236000 M⁻¹ s⁻¹
Kdis [1]: 7.89e-05 s⁻¹
Kon [1]: 110000 M⁻¹ s⁻¹
Kd ([1]; 50 nM antigen (Ab1: 300 nM)): 0.721 nM
Kdis (rhesus CD45 ectodomain): 0.000102 s⁻¹
Kon (rhesus CD45 ectodomain): 118000 M⁻¹ s⁻¹
Kd (rhesus CD45 ectodomain; 50 nM antigen (Ab1: 300 nM)): 0.867 nM
HIC hydrophilic pre-peak (deamidated species) [2]: hydrophilic pre-peak that increased as a function of thermal stress
